The record followed here is patent publication US20130310313A1.

The experiment addresses insulin receptor (insulin receptor tyrosine kinase assay). Kind of experiment: cell-based or functional assay.
In turn, RYKYQCWYI [IRBP-9D (SEQ ID NO:193)] showed an activity of insulin receptor tyrosine kinase of 66 U/ml.

In turn, RYKYQWWYI [IRBP-9C (SEQ ID NO:192)] gave an activity of insulin receptor tyrosine kinase of 44.2 U/ml.

RYKYQCFYI [IRBP-9B (SEQ ID NO:191)] displayed an activity of insulin receptor tyrosine kinase of 79.8 U/ml.

The molecule RYKYQWFYI [IRBP-9A (SEQ ID NO:190)] returned an activity of insulin receptor tyrosine kinase of 40.3 U/ml.
